The target of assay [1] is Shh-N in conditioned medium (human) (UniProt Q15465). Description: cell-based or functional assay.
Assay [2] addresses full length human Shh expressed on the cell surface (human) (UniProt Q15465). Description: cell-based or functional assay.
Assay [3] deals with biotinylated human Shh (human) (UniProt Q15465). Description: ELISA, biotin-Shh coated at 500 ng/ml on neutravidin; antibody 1 ug/ml.
Assay [4] deals with full length human Shh expressed on the cell surface (human) (UniProt Q15465). Description: flow cytometry, 293T cells transiently transfected with human Shh; antibody 0.02 ug/ml.
For assay [5] the target is unchanged. Briefly: flow cytometry, 293T cells transiently transfected with human Shh; antibody 2 ug/ml. A general note: In flow cytometry, cells or beads pass a laser one at a time.
Assay [6] shares this target. Briefly: flow cytometry, 293T cells transiently transfected with human Shh; antibody 0.2 ug/ml.
For assay [7] the target is unchanged. Briefly: flow cytometry, transfected against parental 293T cells.
The target is the same in assay [8]. Briefly: flow cytometry, transfected against parental 293T cells; antibody 0.2 ug/ml.
Assay [9] shares this target. Briefly: flow cytometry, antibody 2 µg/ml, 293T cells transiently expressing human Shh.
Assay [10] shares this target. Description: flow cytometry, transfected against parental 293T cells; antibody 0.02 ug/ml.
For assay [11] the target is unchanged. Description: flow cytometry, transfected against parental 293T cells; antibody 2 ug/ml.
For assay [12] the target is unchanged. Description: FMAT, antibody 10 µg/ml on 293T cells transiently expressing human Shh.

In the case of 5E1 (antibody), in assay [1], the IC50, inhibition of osteoblast differentiation (alkaline phosphatase) of C3H10T1/2 cells stood at 2.9 nM.
In [2], huIgG2/4 (antibody) had a % Inhibition of Gli1 reporter, Co-Culture N = 1, 20 µg/ml of 18%; a % Inhibition of Gli1 reporter, Co-Culture N = 2, 20 µg/ml of 7%; a % Inhibition of Gli1 reporter, Co-Culture N = 3, 20 µg/ml of 2%. In assay [1], this substance yielded a % Inhibition of Gli1 reporter, Conditioned Media N = 1, 20 µg/ml of 2% and a % Inhibition of Gli1 reporter, Conditioned Media N = 2, 20 µg/ml of 23%.
Take “rat anti-Shh antibody (cat# MAB4641, R&D Systems, Inc.)”: in [3], the OD turned out to be 4.81 OD. Moreover, the X Geo Mean (Transients) was determined as 28.5 in assay [4], 965 in assay [5], 221 in assay [6] and 3 in assay [9]. Moreover, the Ratio in assay [7] stood at 0.7; in assay [8] it was 106; in [10], 13.7; in [11], 443. Further, the FL1 X COUNT in assay [12] was determined as 1.47e+06.

The values are drawn from patent US20120328625A1.
